Laboratory results from patent US20220380768A1 (TALLAC THERAPEUTICS, published 2022).

Key:
[1] = biological target: T1, human CD22 on B cells of human PBMCs (human, UniProt P20273 20-847); experiment: flow cytometry; Alexa Fluor 647-labelled antibody on CD20+ B cells of human PBMCs
T1 construct: whole, on cells; also called CD22 on human B cells
Experimental: (§1) Binding of humanized anti-CD22 antibodies to human or cynomolgus PBMCs was measured by flow cytometry. Trima residuals were received from Vitalant and cynomolgus monkey whole blood were received from BioIVT. Both were diluted 1:4 with Phosphate Buffered Saline (PBS, Gibco). Diluted blood was split into two tubes and underplayed with 15 mL Ficoll-Paque (GE Healthcare). Tubes were centrifuged for 30 minutes at 400×g. PBMCs were collected from the interface, washed and resuspended in FACS buffer (PBS with 0.5% Bovine Serum Albumin (Gibco)). 100K PBMCs from human and cynomolgus monkey were plated in 96-well plates and pelleted by centrifugation for five minutes at 400×g and stained at 4° C. in 100 μl Fixable Viability Dye eFluor 780 (Thermo Fisher) diluted 1:4000 in PBS. Cells were centrifuged and stained at 4° C. in 100 μl FACS buffer for 30 minutes containing FcR Blocking Reagent (Miltenyi Biotec), anti-CD20 and Alexa Fluor 647 conjugated CD22 binding antibodies, which were labeled using Molecular Probes Alexa Fluor 647 Protein Labeling kit (Molecular Probes) according to manufacturer's protocol. Cells were centrifuged and washed twice in 200 μl FACS buffer and fixed in 100 μl 0.5% paraformaldehyde. Cells were analyzed on Attune NxT Flow Cytometer (Thermo Fisher), with subsequent data analysis by Flowjo 10.7 (Treestar). Dead cells were excluded by gating on the eFluor 780-negative population. CD20+ cells were gated to identify B cells and median fluorescent intensity for CD22 was determined.

[2] = biological target: T2, cynomolgus monkey CD22 on B cells of cynomolgus PBMCs (cynomolgus monkey); experiment: flow cytometry; Alexa Fluor 647-labelled antibody on CD20+ B cells of cynomolgus PBMCs
T2 construct: whole, on cells; also called cynomolgus CD22; Cyno CD22
Experimental: as §1

[3] = biological target: T1, human CD22 on B cells of human PBMCs; experiment: flow cytometry; Alexa Fluor 647-labelled antibody, human PBMCs
Experimental: as §1
(§2) The fold increase in binding was determined by calculating the ratio of CD22 median fluorescent intensity on CD20⁺ over CD20⁻ cells.

[4] = biological target: T3, human CD22 (d1 to d7 domain according to NP_001762.2) (human, UniProt P20273 20-687); experiment: SPR; mAb supernatant captured on protein A chip, human CD22 injected
T3 construct: domain: d1 to d7 domain; also called human CD22-gly; Siglec-2
Experimental: Binding of humanized anti-CD22 antibodies to human CD22 was measured by surface plasmon resonance (SPR). For assessment of binding by SPR, biotinylated protein A (15 μg/mL) was immobilized to the surface of an NLC chip. 30 μL of mAb supernatant was added to 150 μL of PBS-T and captured over the protein A surface. Serial dilutions of human CD22-gly (300 nM, 3× dilution) were injected over the mAb-coated chips, and binding kinetics were determined. Chips were regenerated using 4:1 v/v of Pierce IgG elution butter/4M NaCl.

[5] = biological target: T3, human CD22 (d1 to d7 domain according …); experiment: SPR; summary table, column 'CD22 KD (nM)'
[6] = biological target: T2, cynomolgus monkey CD22 on B cells of …; experiment: flow cytometry; Alexa Fluor 647-labelled antibody, cynomolgus PBMCs
Experimental: as §1, §2

| Binder | CD22 Median Fluorescent Intensity on CD20+ cells [1] | CD22 Median Fluorescent Intensity on CD20+ cells [2] | CD22: CD20+/CD20- (ratio of median fluorescent intensity) [3] | Kd [4] | koff [4] | kon [4] | Kd [5] | CD22: CD20+/CD20- (ratio of median fluorescent intensity) [6] |
| --- | --- | --- | --- | --- | --- | --- | --- | --- |
| TNT70 (antibody, human IgG1, kappa, V domains shown) VH: QVQLLESGGGVVQPGGSLRLSCAASGFAFSIYDMNWVRQAPGKGLEWVSAISSGGGTTYYADSVKGRFTISRDNAKNSLYLQMNSLRAEDTAVYYCARHSGYGTHWGVLFAYWGRGTLVTVSS VL: DIQMTQSPSSLSASVGDRVTITCRASQDIHGYLNWYQQKPGKAPKLLIYYTSILHSGVPSRFSGSGSGTDFTLTISSLQPEDFATYFCQQGNTLPWTFGQGTKLEIKR | 1560 | 1290 |  |  |  |  |  |  |
| TNT69 (antibody, human IgG1, kappa, V domains shown) VH: EVQLVESGGGLVQPGGSLRLSCAASGFAFSIYDMSWVRQAPGKGLEWVAYISSGGGTTYYPDTVKGRFTISRDNSKNTLYLQMNSLRAEDTAVYYCARHSGYGTHWGVLFAYWGRGTLVTVSS VL: DIQMTQSPSSLSASVGDRVTITCRASQDIHGYLNWYQQKPGKAPKLLIYYTSILHSGVPSRFSGSGSGTDFTLTISSLQPEDFATYFCQQGNTLPWTFGQGTKLEIKR | 1610 | 1410 | 25.4 fold | 0.624 nM | 0.000126 s⁻¹ | 201000 M⁻¹ s⁻¹ | 0.6 nM | 14.9 fold |
| TNT74 (antibody, human IgG1, kappa, V domains shown) VH: QVQLLESGGGVVQPGGSLRLSCAASGFAFSIYDMNWVRQAPGKGLEWVSAISSGGGTTYYADSVKGRFTISRDNAKNSLYLQMNSLRAEDTAVYYCARHSGYGTHWGVLFAYWGRGTLVTVSS VL: DIQMTQSPSSVSASVGDRVTITCRASQDIHGYLAWYQQKPGKAPKLLIYYTSSLQSGVPSRFSGSGSGTDFTLTISSLQPEDFATYYCQQGNTLPWTFGQGTKLEIKR | 1310 |  |  | 15.6 nM |  |  | 16 nM |  |
| TNT78 (antibody, human IgG1, kappa, V domains shown) VH: QVQLLESGGGVVQPGGSLRLSCAASGFAFSIYDMNWVRQAPGKGLEWVSAISSGGGTTYYADSVKGRFTISRDNAKNSLYLQMNSLRAEDTAVYYCARHSGYGTHWGVLFAYWGRGTLVTVSS VL: DIQMTQSPSSLSASVGDRVTITCRASQSISSYLNWYQQKPGKAPKLLIYAASSLQSGVPSRFSGSGSGTDFTLTISSLQPEDFATYYCQQGNTLPWTFGQGTKLEIKR | 1210 | 112 | 19.8 fold | 24.9 nM | 0.00485 s⁻¹ | 195000 M⁻¹ s⁻¹ | 25 nM | 1.2 fold |
| TNT86 (antibody, human IgG1, kappa, V domains shown) VH: QVQLLESGGGVVQPGGSLRLSCAASGFAFSIYDMNWVRQAPGKGLEWVSAISSGGGTTYYADSVKGRFTISRDNAKNSLYLQMNSLRAEDTAVYYCARHSGYGTHWGVLFAYWGRGTLVTVSS VL: DIVMTQTPLSLSVTPGQPASISCRASQDIHGYLNWYQQKPGQSPQLLIYYTSILHSGVPDRFSGSGSGTDFTLKISRVEAEDVGVYFCQQGNTLPWTFGGGTKLEIKR | 1570 | 1430 | 23.9 fold | 1.09 nM | 0.000141 s⁻¹ | 130000 M⁻¹ s⁻¹ | 1.1 nM | 10.9 fold |
| TNT85 (antibody, human IgG1, kappa, V domains shown) VH: EVQLVESGGGLVQPGGSLRLSCAASGFAFSIYDMSWVRQAPGKGLEWVAYISSGGGTTYYPDTVKGRFTISRDNSKNTLYLQMNSLRAEDTAVYYCARHSGYGTHWGVLFAYWGRGTLVTVSS VL: DIVMTQTPLSLSVTPGQPASISCRASQDIHGYLNWYQQKPGQSPQLLIYYTSILHSGVPDRFSGSGSGTDFTLKISRVEAEDVGVYFCQQGNTLPWTFGGGTKLEIKR | 1580 | 1380 | 23.1 fold | 1.25 nM | 0.000169 s⁻¹ | 135000 M⁻¹ s⁻¹ | 1.3 nM | 9.6 fold |
| TNT87 (antibody, human IgG1, kappa, V domains shown) VH: EVQLVESGGGLVQPGGSLRLSCAASGFTFSSYEMNWVRQAPGKGLEWVSYISSSGSTIYYADSVKGRFTISRDNAKNSLYLQMNSLRAEDTAVYYCARHSGYGTHWGVLFAYWGRGTLVTVSS VL: DIVMTQTPLSLSVTPGQPASISCRASQDIHGYLNWYQQKPGQSPQLLIYYTSILHSGVPDRFSGSGSGTDFTLKISRVEAEDVGVYFCQQGNTLPWTFGGGTKLEIKR | 1440 | 1370 |  |  |  |  | 0.7 nM |  |
| TNT73 (antibody, human IgG1, kappa, V domains shown) VH: EVQLVESGGGLVQPGGSLRLSCAASGFAFSIYDMSWVRQAPGKGLEWVAYISSGGGTTYYPDTVKGRFTISRDNSKNTLYLQMNSLRAEDTAVYYCARHSGYGTHWGVLFAYWGRGTLVTVSS VL: DIQMTQSPSSVSASVGDRVTITCRASQDIHGYLAWYQQKPGKAPKLLIYYTSSLQSGVPSRFSGSGSGTDFTLTISSLQPEDFATYYCQQGNTLPWTFGQGTKLEIKR | 1410 | 216 | 19.9 fold | 14.5 nM | 0.0023 s⁻¹ | 158000 M⁻¹ s⁻¹ | 14 nM | 1.9 fold |
| TNT79 (antibody, human IgG1, kappa, V domains shown) VH: EVQLVESGGGLVQPGGSLRLSCAASGFTFSSYEMNWVRQAPGKGLEWVSYISSSGSTIYYADSVKGRFTISRDNAKNSLYLQMNSLRAEDTAVYYCARHSGYGTHWGVLFAYWGRGTLVTVSS VL: DIQMTQSPSSLSASVGDRVTITCRASQSISSYLNWYQQKPGKAPKLLIYAASSLQSGVPSRFSGSGSGTDFTLTISSLQPEDFATYYCQQGNTLPWTFGQGTKLEIKR | 1300 | 349 |  |  |  |  | 23 nM |  |
| TNT76 (antibody, human IgG1, kappa, V domains shown) VH: QVQLQESGPGLVKPSDTLSLTCTVSGFAFSIYDMSWIRQPPGKGLEWIAYISSGGGTTYYNPSLKSRVTISVDTSKNQFSLKLSSVTAADTAVYYCARHSGYGTHWGVLFAYWGRGTLVTVSS VL: DIQMTQSPSSVSASVGDRVTITCRASQDIHGYLAWYQQKPGKAPKLLIYYTSSLQSGVPSRFSGSGSGTDFTLTISSLQPEDFATYYCQQGNTLPWTFGQGTKLEIKR | 1190 | 140 |  |  |  |  |  |  |
| TNT80 (antibody, human IgG1, kappa, V domains shown) VH: QVQLQESGPGLVKPSDTLSLTCTVSGFAFSIYDMSWIRQPPGKGLEWIAYISSGGGTTYYNPSLKSRVTISVDTSKNQFSLKLSSVTAADTAVYYCARHSGYGTHWGVLFAYWGRGTLVTVSS VL: DIQMTQSPSSLSASVGDRVTITCRASQSISSYLNWYQQKPGKAPKLLIYAASSLQSGVPSRFSGSGSGTDFTLTISSLQPEDFATYYCQQGNTLPWTFGQGTKLEIKR | 1210 | 159 |  |  |  |  |  |  |
